Experimental data taken from the supplement of paper PMC9170038.

Tested on: MS2 coat protein
Assay: apparent KD of MS2 coat protein; designed switch direction (-1 OFF switch, 1 ON switch): -1; higher = weaker reporter binding
Method in brief: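 Transcription of designed RNA switches on Illumina chips was done by stalled E. coli RNA polymerase. SNAP-549-labelled MS2 coat protein was then titrated in doubling steps from 0.7 or 1.5 nM to 3 µM, with steps of 0.8–1.5 h at the lowest and 10–20 min at the highest concentration. The per-design median over clusters of curve-fitted normalised fluorescence is reported as apparent KD.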

[1] = Eterna round: R95, input ligand: FMN 200 uM
[2] = Eterna round: R95, input ligand: microRNA oligo, concentration not stated
[3] = Eterna round: R95, input ligand: none
[4] = input ligand: microRNA oligo, concentration not stated

Row | Sequence | apparent KD of MS2 coat protein (input ligand: FMN 200 uM) [µM] | apparent KD of MS2 coat protein (input ligand: none) [µM] | apparent KD of MS2 coat protein [1] [µM] | apparent KD of MS2 coat protein [2] [µM] | apparent KD of MS2 coat protein [3] [µM] | apparent KD of MS2 coat protein [4] [µM]
1 | AAUCUGCCGUAGGAUAUCUGAAGUUUAUAUAUAAGAGAAGGACGGACAUGAGGAUCACCCAUGUACGAUCCUGC [EX6 B.24] (Eterna round: R97, puzzle: Exclusion 6) | 0.0199 | 0.0115 | – | – | – | –
2 | CUGAGCAGACGGAAAUCCAACAUGAGGAUCACCCAUGUCUCAAAAGCUUUUUGCUUGUCUUAUUCUCCUCUGUUCUC [Edtile] (puzzle: Sensor v3, turn-off variant 1) | – | – | 0.0138 | 0.0712 | 0.0129 | –
3 | CGCUGUUGAGGAUAUGGGCGUGGUUACAUGAGGAUCACCCAUGUGGUGUCGCGCGUGGGUCCAGAAGGCGGCGGUG [-31.8, -28.5 kcal, 16% A] (Eterna round: R97, puzzle: Exclusion 5) | 0.0335 | 0.0175 | – | – | – | –
4 | UUAAUUAAUUAAGCGCAAGAUCACAUGAGGAUCACCCAUGUAUAGGAUAUCAGCUCGUGUAGAGCUGAGAAGGAUACAUAGCGC [ExNG3/2-A3] (Eterna round: R96, puzzle: Exclusion NG 3) | 1.03 | 0.143 | – | – | – | 0.184
5 | UAUAUAUAGUAAGGAUAUGUAUUAAUAUUAUAAACAGAAGGUACUGACAUGAGGAUCACCCAUGUUUUAGUGUGGGCAUGUAGA [JMF's solution 77] (Eterna round: R96, puzzle: Exclusion NG 1) | – | – | – | – | – | 0.0668
6 | AGACUUAUAGGAUAUACAUGAGGAUCACCCAUGUCGCCAGGCGGUAGCAGAGUCUUUUGUAGAAGGAUGACAAC [Eternabot (Original) Solution 35] (Eterna round: R97, puzzle: Exclusion 3) | 0.0206 | 0.0212 | – | – | – | –
7 | GUAGAGUAAGGAUAUACUGAAUAGGAUAGAAUGGUUAGAAAGUAGAAGGUACAUGAGGAUCACCCAUGUAAUGU [Excluse me!!!! 19 - Jieux - Exclusion 4] (puzzle: Exclusion 4) | – | – | – | 0.0204 | – | –
8 | AAUAAACAUGAGGAUCACCCAUGUCAGGAUAUACGAAGAAAGAAAGAAAGAAAGAAGAGUAGAAGGGAUAGGAA [Excls1-III] (puzzle: Exclusion 1) | – | – | 0.0316 | 0.0293 | 0.0326 | –
9 | GGAAGGUGAGGAUAUACUAAGCCGGAAACGGCAGGUGGGAGACAUGAGGAUCACCCAUGUAGAAGGCACGGAGA [AK-MS2ROC-r4-exclusion2-18] (Eterna round: R97, puzzle: Exclusion 2) | 0.703 | 0.113 | – | – | – | –
10 | GAGGGACAUGAGGAUCACCCAUGUGAGGAUAUGUAAGAGAGAAGAGAGAGGAUAAGAAACAGAAGGCGCGGGAG [JR_Exclu1_Sub090] (puzzle: Exclusion 1) | – | – | 0.0339 | 0.044 | 0.0771 | –
11 | UUCCUGUCAGGAUAUGACUAGAUGCACGUUAGUGUGUUUACUUAGAAGGGACAUGAGGAUCACCCAUGUAUUCC [Bring Us a Shrubbery-15] (puzzle: Exclusion 4) | – | – | – | 0.0251 | – | –
12 | AGAGUGUGAGGAUAUAUGGUGAAGAUGAAGGGAUAGAAGGAGUAGAAGGUACAUGAGGAUCACCCAUGUUAGGA [JR_Exclu4_Sub076] (puzzle: Exclusion 4) | – | – | – | 0.0231 | – | –
13 | AGUACUAACACGAGAGUGUUAGUACAAUAAGCUUGUGUUACAUGAGGAUCACCCAUGUCCUCAUAAGCUCGUCUUAA [Mat - Sensor v3 - Turn-off var 2 - D58] (puzzle: Sensor v3, turn-off variant 2) | – | – | 0.0413 | 0.727 | 0.0425 | –
14 | GCUAGAGCAGGAUAUCUAGAUCCACACAUGAGGAUCACCCAUGUAGUCGAAAGACUAAGAAGAGAAGGGCUCUAGC [Omei Ex5 E16] (Eterna round: R97, puzzle: Exclusion 5) | 0.322 | 0.324 | – | – | – | –
15 | UCGGCGCGAGGAUAUGCGGCUGCUGCUUCGGGCCGUGGCGUACAUGAGGAUCACCCAUGUAGAAGGCGCGCCGC [Apr-15 SS2-40] (Eterna round: R96, puzzle: Exclusion 2) | 0.0129 | 0.0148 | – | – | – | 0.0104
16 | UUAAUAUAUCAGGAUAUGAUUAUAUGUGUUAAAUCAGAAGGGAUAACAUGAGGAUCACCCAUGUUGUGGAGUGA [JR_Ex6_Sub033] (Eterna round: R97, puzzle: Exclusion 6) | 0.303 | 0.0928 | – | – | – | –
17 | GGGUAACAUGAGGAUCACCCAUGUGAGGAUAUUCUAGGGAUGGAAGCUCGGCCGGCCAGGAGAAGGUACUAAAG [Janelle Amethyst 18 Mod 20 - Jieux - Exclusion 1] (Eterna round: R96, puzzle: Exclusion 1) | 0.062 | 0.0482 | – | – | – | 0.0296
18 | UAUCGGGACUGAGGAUAUUCGUUCGAACACGAAGAAGAAGGUAGUGUCAGGGACAUGAGGAUCACCCAUGUGAUUUCAGUCCCA [JL ViennaUCT Erinle mod 4] (Eterna round: R96, puzzle: Exclusion NG 1) | 0.133 | 0.139 | – | – | – | 0.0968

Row | Sequence | apparent KD of MS2 coat protein (input ligand: FMN 200 uM) [µM] | apparent KD of MS2 coat protein (input ligand: none) [µM] | apparent KD of MS2 coat protein [1] [µM] | apparent KD of MS2 coat protein [2] [µM] | apparent KD of MS2 coat protein [3] [µM] | apparent KD of MS2 coat protein [4] [µM]
19 | AGAUCACAUGAGGAUCACCCAUGUGAGGAUAUGAUACUAUGUACUUCGGUACAUAGUAUCAGAAGGCAUGUGAA [Ex1-3: 74] (puzzle: Exclusion 1) | – | – | – | 0.0427 | – | –
20 | CCUCCGUAUAAGGAUAUCGUCCAGGAAACUGGACGAGAAGGUAUGACAUGAGGAUCACCCAUGUGAAAGUGAUG [Mod of Brourd 25 - Jieux - Exclusion 6] (Eterna round: R97, puzzle: Exclusion 6) | 0.212 | 0.0714 | – | – | – | –
21 | CUUAGACAUGAGGAUCACCCAUGUGAGGAUAUGAUGCGAUCGUGCUGACAUGAUCGCAUCAGAAGGCACAUAUG [JL-ex1-01 Hyphema Mod2] (Eterna round: R96, puzzle: Exclusion 1) | 0.242 | 0.115 | – | – | – | 0.101
22 | GAAGAAAAGGCAGGAUAUCAGAAACACAUGAUAAGGAGAUGCAACAUGAGGAUCACCCAUGUAAAUGAGAAGGGCCGCCCUUCC [Arbiis] (Eterna round: R96, puzzle: Exclusion NG 2) | – | – | – | – | – | 0.028
23 | AGCAAGCUUUAAAGAUCCUACAUGAGGAUCACCCAUGUGCUCGUCUUAUAACGUACUGUGACGAAAGUCACGGUACG [JL TOV1 3.33] (Eterna round: R97, puzzle: Sensor, turn-off variant 1) | 0.357 | 0.603 | – | – | – | –
24 | UCGUGAUUAGAGGAUAUAUUUUGAGUCAGAACAAUAGAAGGCUAAACAUGAGGAUCACCCAUGUAUGUGUAAAA [JR_Ex6_Sub063] (Eterna round: R97, puzzle: Exclusion 6) | 0.184 | 0.0269 | – | – | – | –
25 | UUUUUGUCAGGAUAUGCAUGUUUUUUUUUUUUUUUUUUCAUGCAGAAGGGACAUGAGGAUCACCCAUGUAGUUU [Ex4 - 3 - 10] (puzzle: Exclusion 4) | – | – | 0.0343 | 0.0234 | 0.0379 | –
26 | GAGUGACAUGAGGAUCACCCAUGUGAGGAUAUCCGAUGGACCAAAUUAACAAUAGAAGGGAGAAGGCGCAUAAA [Exclusion 1 V8] (puzzle: Exclusion 1) | – | – | 0.133 | 0.152 | 0.158 | –
27 | ACAAGCUUAUUGCUCGGGUACAUGAGGAUCACCCAUGUUUGUGAUUAUAGAGAUUGUGUUGACGUGCGCUGCAGGUU [JR_SV3TOV1_Sub078] (puzzle: Sensor v3, turn-off variant 1) | – | – | 0.0611 | 0.0379 | 0.077 | –
28 | CCGGAACAUGAGGAUCACCCAUGUCAGGAUAUCUCAAAAUCGUCGAUAGACGAUAACAAGAGAAGGGACACCGG [Mat - Exclusion 1 - Eli Mod - D29] (Eterna round: R97, puzzle: Exclusion 1) | 0.0234 | 0.0208 | – | – | – | –
29 | UGCAGACGAGGAUAUGAUAAAGAUCACAUGAGGAUCACCCAUGUACGCAGGAUACUGCGAUCAGAAGGCGUCUGCA [E5/1-A3] (Eterna round: R97, puzzle: Exclusion 5) | 0.0163 | 0.013 | – | – | – | –
30 | GAAAAGGUAGGAUAUACGAAAAAAAAGGUUAGAAAAAAAACACAUGAGGAUCACCCAUGUAGAAGGACCAAAAG [salish99_ex2_r3_067] (puzzle: Exclusion 2) | – | – | 0.0174 | 0.0218 | 0.0178 | –
31 | AUCAGCUCGUGAGGAUAUGCACAUGAGGAUCACCCAUGUAAGAUCAAGCUGCUUCGGCAGCAAGUGCAGAAGGUACGAGCUGAU [ENG2/9-C2] (Eterna round: R96, puzzle: Exclusion NG 2) | 0.206 | 0.234 | – | – | – | 0.128
32 | UCGGCGCGAGGAUAUGCGGCUGCUGCUUCGGGCCGUGGCGUACAUGAGGAUCACCCAUGUAGAAGGCGCGCCGC [Apr-15 SS2-40] (puzzle: Exclusion 2) | – | – | – | 0.0113 | – | –
33 | AAAUUCAGAGGAUAUGCGCAUAGAUAAGACUUUUUUUUUUAACAUGAGGAUCACCCAUGUAGAAGGCUGUAACA [Ex2 #50] (Eterna round: R97, puzzle: Exclusion 2) | 0.0254 | 0.0212 | – | – | – | –
34 | GUGUACAGAGGAUAUACACGAGUAGUUACGAAAGUAACUACACAUGAGGAUCACCCAUGUAGAAGGCUGUACAC [Dot plot directed] (puzzle: Exclusion 2) | – | – | – | 0.0204 | – | –
35 | UUCAUGUGAGGAUAUAGUACUUCUUCUAUUAUUAUUGAGUACUAGAAGGCACAUGAGGAUCACCCAUGUAGUAC [Ex4 - 3 - 43] (puzzle: Exclusion 4) | – | – | – | 0.0391 | – | –
